Article PMC8567202, “Phosphoinositide-binding activity of Smad2 is essential for its function in TGF-β signaling” (The Journal of Biological Chemistry, 2021)
Changes are numbered by the printed parent chain. Names and notes keep the numbering of the source.

How the values were obtained:
[1] = test system: TβRI; experiment: Dual color single-molecule tracking, TβRI and EGFP-Smad2; assay type: cell-based; settings: HeLa cells with endogenous Smad2 suppressed, 10 ng/ml TGF-β
Experimental: (§1) Figure 4 Quantitative imaging analyses of spatiotemporal dynamics of Smad2.A, TIRF images of mouse EGFP-Smad2-WT transfected into HeLa cells whose endogenous Smad2 is suppressed by siRNA. Images were taken before and 5 min after TGF-β stimulation (10 ng/ml) with and without PI(4,5)P2 depletion. A pseudo-coloring scheme was used with orange and blue representing the highest and the lowest intensity, respectively. B, kinetics of TGF-β stimulated (10 ng/ml) PM localization of EGFP-Smad2-WT (blue), -K420A (green), and -W422A (orange) transfected into HeLa cells the endogenous Smad2 of which was suppressed by siRNA. For EGFP-Smad2-WT, the effect of PI(4,5)P2 depletion (black) and TβRI inhibition by SB-431542 (10 μM for 36 h) (red) were measured. Data points indicate average ±S.D. (n = 10 cells). C, spatially resolved PM PI(4,5)P2 concentration ([PI(4,5)P2]) profiles calculated from two-channel cross-sectional images of HeLa cells (before and 5 min after 10 ng/ml TGF-β stimulation and after PI(4,5)P2 depletion). Each cell is a representative of more than ten cells analyzed. Spatially averaged [PI(4,5)P2] values for each cell type are shown. The z-axis scale indicates [PI(4,5)P2] in mol%. A pseudo-coloring scheme with red and blue representing the highest (1.5 mol%) and the lowest (0 mol%) concentration, respectively, is used to illustrate the spatial [PI(4,5)P2] heterogeneity. Scale bars indicate 10 μm. D, dual color single-molecule tracking of EGFP-PLCδ-PH and SNAP-TMR-labeled TβRI at the PM of HeLa cells. Time courses of the half-life of colocalization for SNAP-TMR-labeled TβRI and EGFP-PLCδ-PH after 10 ng/ml TGF-β stimulation were determined with (orange) and without (blue) PI(4,5)P2 depletion. Data points indicate average ±S.D. (n = 10 cells). E, time courses of the half-life of colocalization for SNAP-TMR-labeled TβRI and EGFP-Smad2 determined by dual color single-molecule tracking analysis. Colocalization of TβRI with EGFP-Smad2-WT (blue), -K420A (green), -W422A (orange), E425K (red), Y426A (cyan), and -R427A/R428A (black) transfected into HeLa cells whose endogenous Smad2 was suppressed by siRNA is shown. For EGFP-Smad2-WT, the effect of PI(4,5)P2 depletion (purple) was measured. Data points indicate average ±S.D. (n = 10 cells). […] TEXT PRINTED IN THE PICTURE: (C) PI(4,5)P2: [PI(4,5)P2] = 1.05 ± 0.20 mol% (HeLa unstimulated); [PI(4,5)P2] = 1.00 ± 0.40 mol% (HeLa 5 min after TGFβ); [PI(4,5)P2] = 0.16 ± 0.08 mol% (HeLa After PI(4,5)P2 depletion) DOUBTS OF THE COPYIST ABOUT THIS PICTURE: Panel C: the printed values are measured membrane concentrations of PI(4,5)P2 in HeLa cells under three conditions, not an activity or property of a compound; it is uncertain whether they count as a result for a substance
Single-molecule imaging was performed using a custom-built total internal reflection fluorescence microscope as described previously. HeLa cells were plated on the 8-well chambered coverglass (Lab-Tek, Thermo Fisher Scientific) at the density of 1 × 10^5 for 24 h, EGFP-Smad2 or mutants and SNAP-tagged TβRI were cotransfected into cells using the jetPRIME system (Polyplus-transfection) according to the manufacturer's protocols. The transfected HeLa cells were serum starved for 16 h and subsequently labeled with SNAP-Cell tetramethylrhodamine (TMR)-Star (New England Biolabs). Labeled cells were washed to remove the free dye, stimulated with 10 ng/ml TGF-β, the two protein molecules were simultaneously tracked and analyzed as described. The images were spatially corrected following the algorithm described previously ([39]). All particle tracking, data analysis, and image processing were carried out with in-house programs written in MATLAB. Colocalization analysis of two molecules was performed with a fixed threshold criterion (i.e., <400 nm) for colocalization ([39]). The same size of PM surface was analyzed for each data. […]

[2] = test system: HeLa cells; experiment: TIRF imaging of PM localization of EGFP-Smad2; assay type: cell-based; settings: for PM localization after TGF-β stimulation: HeLa cells with endogenous Smad2 suppressed
Experimental: as §1
Quantitative TIRF microscopy imaging of PM localization of EGFP tagged Smad2 WT and mutants was performed using custom-built internal reflection fluorescence microscope. WT HeLa cells or PI(4,5)P2 depleted HeLa cells were plated on the 8-well chambered cover glass (Lab-Tek, Thermo Fisher Scientific) at the density of 1 × 10^5 for 24 h. Endogenous Smad2 was suppressed using SiRNA and EGFP-Smad2 or mutants were transfected into cells using the jetPRIME system (Polyplus-transfection) according to the manufacturer's protocols. The transfected HeLa cells were serum starved for 16 h prior imaging. PM-bound EGFP-Smad2 fraction was monitored before and after stimulation with 10 ng/ml TGF-β up to 15 min. For EGFP-Smad2 WT, the effect of TβRI inhibition was monitored by incubating cells with 10 μM of SB-431542 for 36 h. Image analysis was performed using Image J software. Mean intensity of the EGFP-Smad2 signal was calculated for each time point, and final graph was plot by subtracting the mean intensity at 0 min from the mean intensity of each time point. More than ten cells were analyzed for each data point.

B1: EGFP-Smad2 WT: mouse EGFP-Smad2 wild type transfected into HeLa cells (protein, UniProt Q62432 2-467, looked up)
Mothers against …: SSILPFTPPVVKRLLGWKKSAGGSGGAGGGEQNGQEEKWCEKAVKSLVKKLKKTGRLDELEKAITTQNCNTKCVTIPSTCSEIWGLSTANTVDQWDTTGLYSFSEQTRSLDGRLQVSHRKGLPHVIYCRLWRWPDLHSHHELKAIENCEYAFNLKKDEVCVNPYHYQRVETPVLPPVLVPRHTEILTELPPLDDYTHSIPENTNFPAGIEPQSNYIPETPPPGYISEDGETSDQQLNQSMDTGSPAELSPTTLSPVNHSLDLQPVTYSEPAFWCSIAYYELNQRVGETFHASQPSLTVDGFTDPSNSERFCLGLLSNVNRNATVEMTRRHIGRGVRLYYIGGEVFAECLSDSAIFVQSPNCNQRYGWHPATVCKIPPGCNLKIFNNQEFAALLAQSVNQGFEAVYQLTRMCTIRMSFVKGWGAEYRRQTVTSTPCWIELHLNGPLQWLDKVLTQMGSPSVRCSSMS
modifications: EGFP fusion
notes: mouse EGFP-Smad2 wild type transfected into HeLa cells
[1]; n = 10 cells
  time of peak colocalization with TMR-SNAP-TβRI after TGF-β stimulation: 5 min
[2]; 10 ng/ml TGF-β
  PM localization after TGF-β stimulation: clearly visible

B2: Smad2-W422A: W422A mutant of full-length Smad2; specific PI(4,5)P2 binding-compromised (protein)
chain: MSSILPFTPPVVKRLLGWKKSAGGSGGAGGGEQNGQEEKWCEKAVKSLVKKLKKTGRLDELEKAITTQNCNTKCVTIPSTCSEIWGLSTANTVDQWDTTGLYSFSEQTRSLDGRLQVSHRKGLPHVIYCRLWRWPDLHSHHELKAIENCEYAFNLKKDEVCVNPYHYQRVETPVLPPVLVPRHTEILTELPPLDDYTHSIPENTNFPAGIEPQSNYIPETPPPGYISEDGETSDQQLNQSMDTGSPAELSPTTLSPVNHSLDLQPVTYSEPAFWCSIAYYELNQRVGETFHASQPSLTVDGFTDPSNSERFCLGLLSNVNRNATVEMTRRHIGRGVRLYYIGGEVFAECLSDSAIFVQSPNCNQRYGWHPATVCKIPPGCNLKIFNNQEFAALLAQSVNQGFEAVYQLTRMCTIRMSFVKGAGAEYRRQTVTSTPCWIELHLNGPLQWLDKVLTQMGSPSVRCSSMS
modifications: left off: His6, N-terminal, state not stated
[1]
  dynamic colocalization / dwell time with TβRI after TGF-β stimulation: much reduced TGFβ-stimulated dynamic colocalization with TβRI
[2]; 10 ng/ml TGF-β
  PM localization after TGF-β stimulation: little PM localization

B3: Smad2-K420A: K420A mutant of full-length Smad2; predominantly TβRI binding-compromised (protein)
chain: B2 chain with K420A, A422W
modifications: left off: His6, N-terminal, state not stated
[1]
  dynamic colocalization / dwell time with TβRI after TGF-β stimulation: little response to TGFβ stimulation
[2]; 10 ng/ml TGF-β
  PM localization after TGF-β stimulation: able to migrate to the PM as fast as WT
[2]; HeLa cells, 10 ng/ml TGF-β, SB-431542 10 μM for 36 h where used
  PM residence / dissociation of Smad2: slow dissociation

B4: Smad2-E425K: charge-reversal mutant of full-length Smad2; PI(4,5)P2 and TβRI binding-enhanced (protein)
chain: B2 chain with A422W, E425K
modifications: left off: His6, N-terminal, state not stated
[1]
  dynamic colocalization / dwell time with TβRI after TGF-β stimulation: stronger interaction with TβRI in terms of both amplitude and duration

B5: Smad2- R427A/R428A: double mutant of full-length Smad2; PI(4,5)P2 and TβRI binding-compromised (protein)
chain: B2 chain with A422W, R427A, R428A
modifications: left off: His6, N-terminal, state not stated
[1]
  dynamic colocalization / dwell time with TβRI after TGF-β stimulation: low response to TGFβ stimulation

B6: Smad2 WT: bacterially expressed full-length Smad2 wild-type (protein)
chain: B2 chain with A422W
modifications: left off: His6, N-terminal, state not stated
notes: bacterially expressed full-length Smad2 wild-type
[2]; HeLa cells, 10 ng/ml TGF-β
  time of peak PM translocation after TGF-β stimulation: 5 min
[2]; HeLa cells, rapamycin-induced Inp54 recruitment
  PM translocation after PI(4,5)P2 depletion: abrogated

B7: Smad2-Y426A: Y426A mutant of full-length Smad2; specific PI(4,5)P2 binding-compromised (protein)
chain: B2 chain with A422W, Y426A
modifications: left off: His6, N-terminal, state not stated
[1]
  dynamic colocalization / dwell time with TβRI after TGF-β stimulation: much reduced TGFβ-stimulated dynamic colocalization with TβRI
